Measured values taken from the Human Domainome abundance scans (Beltran et al. 2025).
± gives the uncertainty stated by the source.

B1: Kinesin-like protein KIF16B, residues 1213 to 1273; numbered along this chain, Q96L93 (parent)
chain: ETWTVFRRYSRFREMHKTLKLKYAELAALEFPPKKLFGNKDERVIAERRSHLEKYLRDFFS

Variants of: B1
Assay: abundance fitness (aPCA) (normalised: wild type 0, dead -1); higher = more abundant; growth selection in yeast, the domain comes from the species named
Conditions: Homo sapiens

Abundance fitness, by site and new letter:
E25: Y -0.542 ± 0.12, M -0.409 ± 0.2, H -0.749 ± 0.42, F -0.224 ± 0.12, L -0.465 ± 0.084, I -0.292 ± 0.18, G -0.384 ± 0.068, K -0.144 ± 0.069, V -0.475 ± 0.063, R -0.352 ± 0.06, Q 0.015 ± 0.12, T -0.468 ± 0.093, S -0.238 ± 0.042, A -0.309 ± 0.092
K22: T -0.207 ± 0.12, M -0.153 ± 0.1, C -0.222 ± 0.12, Y -0.354 ± 0.28, S -1.01 ± 0.22, A -0.168 ± 0.09, P -0.921 ± 0.16, G -0.454 ± 0.072, W 0.28 ± 0.078, L 0.127 ± 0.055, V 0.03 ± 0.059, D -0.907 ± 0.37, R -0.354 ± 0.071, E -0.77 ± 0.3, I 0.069 ± 0.095, Q -0.828 ± 0.16
L36: M -0.586 ± 0.23, D -0.596 ± 0.3, R -0.634 ± 0.1, E -0.592 ± 0.1, F -0.02 ± 0.31, V -0.435 ± 0.085, P -0.317 ± 0.15, K -0.463 ± 0.14, T -0.453 ± 0.13, H -0.826 ± 0.24, S -0.67 ± 0.15, Q -0.976 ± 0.37, Y -0.525 ± 0.21, G -0.658 ± 0.099, A -0.41 ± 0.11, W 0.27 ± 0.088
K34: A 0.368 ± 0.24, V 0.06 ± 0.094
A27: L -0.02 ± 0.061, S -0.099 ± 0.069, T 0.127 ± 0.078, F -0.215 ± 0.32, W -0.362 ± 0.073, M 0.246 ± 0.091, K 0.286 ± 0.055, V -0.041 ± 0.058, N -0.281 ± 0.16, C 0.099 ± 0.087, G -0.293 ± 0.047, R 0.245 ± 0.053, D -0.388 ± 0.11, Q 0.166 ± 0.09
K40: Q -0.164 ± 0.36, G -0.269 ± 0.17
A28: Y -1.03 ± 0.39, C -0.156 ± 0.13, K -0.094 ± 0.17, V -0.912 ± 0.18, F -0.116 ± 0.34, P -0.424 ± 0.11, W -0.177 ± 0.11, G -0.101 ± 0.072, R -0.036 ± 0.053, I -0.311 ± 0.49, T 0.009 ± 0.08, M -0.433 ± 0.16, S -0.129 ± 0.1
R43: P -0.004 ± 0.11, M -0.32 ± 0.087, A 0.033 ± 0.052, W -0.155 ± 0.076, I -0.227 ± 0.23, V -0.099 ± 0.049, T 0.018 ± 0.063, E -0.22 ± 0.1, L -0.282 ± 0.065, H 0.129 ± 0.085, Y -0.489 ± 0.12, F -0.249 ± 0.45, G 0.209 ± 0.047, N 0.137 ± 0.1, Q 0.003 ± 0.077, C -0.097 ± 0.33, D -0.31 ± 0.12, K 0.017 ± 0.077
P33: F 0.495 ± 0.096, Q -0.429 ± 0.26, T -0.02 ± 0.16, L 0.366 ± 0.049, K 0.035 ± 0.13, I 0.24 ± 0.39, D -1.07 ± 0.42, S 0.022 ± 0.067, E -0.857 ± 0.24, H 0.107 ± 0.15, V 0.17 ± 0.039, Y -0.378 ± 0.24, W 0.322 ± 0.084, G 0.279 ± 0.038, A 0.047 ± 0.059
K35: T -0.585 ± 0.41, D -0.717 ± 0.35, I -0.521 ± 0.23, A -0.204 ± 0.19, N 0.034 ± 0.12, S -0.108 ± 0.074, Y -0.073 ± 0.16, M -0.36 ± 0.13, G -0.148 ± 0.062, Q -0.233 ± 0.4, E -0.786 ± 0.26, V -0.34 ± 0.12
P32: L 0.296 ± 0.056, F 0.329 ± 0.093, T 0.069 ± 0.056, M 0.191 ± 0.046, Q -0.243 ± 0.081, N 0.209 ± 0.088, H 0.166 ± 0.47, W 0.353 ± 0.065, R 0.139 ± 0.049, D -0.082 ± 0.11, C 0.171 ± 0.075, E -0.374 ± 0.086, Y -0.691 ± 0.38, S 0.159 ± 0.085, K 0.275 ± 0.065, A 0.075 ± 0.055
L29: Y -0.31 ± 0.32, I 0.427 ± 0.22, E -0.883 ± 0.12, C -0.228 ± 0.14, W 0.223 ± 0.052, H -0.38 ± 0.41, F -0.188 ± 0.25, K -0.226 ± 0.08, A 0.172 ± 0.07, S -0.513 ± 0.11, V -0.033 ± 0.063, T -0.132 ± 0.073, R -0.192 ± 0.053, M 0.337 ± 0.063
F31: C -0.644 ± 0.15, D -0.946 ± 0.38, Q -0.716 ± 0.24, E -0.46 ± 0.11, K -0.752 ± 0.35, T -0.949 ± 0.19, I -0.64 ± 0.32, L -0.397 ± 0.12, S -0.699 ± 0.15, A -0.573 ± 0.18, N -0.703 ± 0.2, Y -0.295 ± 0.35, G -0.862 ± 0.12, W 0.194 ± 0.062, V -0.545 ± 0.079, R -0.692 ± 0.09
L21: Q 0.159 ± 0.16, N -0.289 ± 0.25, R 0.163 ± 0.056, V 0.114 ± 0.054, T -0.079 ± 0.13, S 0.254 ± 0.06, Y -0.477 ± 0.18
V44: C 0.316 ± 0.19, G 0.188 ± 0.053, K 0.18 ± 0.2, R 0.117 ± 0.051, D 0.24 ± 0.19, Q 0.047 ± 0.1, A 0.029 ± 0.086, P 0.299 ± 0.12, N -0.06 ± 0.13, E -0.145 ± 0.11
F37: I -0.111 ± 0.14, P -0.573 ± 0.14, Q -0.476 ± 0.12, D -0.2 ± 0.1, T -0.566 ± 0.096, C -0.631 ± 0.3, H -0.597 ± 0.45, L -0.271 ± 0.081, R -0.35 ± 0.072, G -0.334 ± 0.076, S -0.446 ± 0.061, W -0.734 ± 0.23, V -0.202 ± 0.088, E -0.407 ± 0.056, A -0.451 ± 0.12, K -0.189 ± 0.094
E30: S 0.151 ± 0.065, V 0.372 ± 0.042, D 0.08 ± 0.068, R 0.018 ± 0.058, I 0.539 ± 0.079, L 0.476 ± 0.039, T 0.108 ± 0.093, Y 0.322 ± 0.047, A 0.169 ± 0.052, N 0.071 ± 0.096, W 0.313 ± 0.071, K -0.033 ± 0.084, G 0.153 ± 0.046, Q 0.036 ± 0.093, H -0.212 ± 0.11, M 0.347 ± 0.072
N39: Q 0.054 ± 0.12, K 0.203 ± 0.11, I 0.06 ± 0.13, F -0.246 ± 0.16, E -0.397 ± 0.13, H 0.05 ± 0.16, T -0.291 ± 0.082, M -0.063 ± 0.063, V -0.011 ± 0.077, G 0.036 ± 0.065, Y -0.347 ± 0.078, R 0.04 ± 0.041, W -0.108 ± 0.063, A 0.174 ± 0.16, S -0.033 ± 0.07, P -0.102 ± 0.12
A24: F -0.331 ± 0.17, E -0.174 ± 0.1, S -0.24 ± 0.1, L -0.352 ± 0.075, V -0.321 ± 0.095, G -0.446 ± 0.11, R 0.178 ± 0.049, M -0.107 ± 0.13, T -0.115 ± 0.1, P -0.518 ± 0.33, W -0.569 ± 0.12, Q -0.227 ± 0.12
E42: Q -0.056 ± 0.067, K 0.227 ± 0.1, V -0.012 ± 0.069, N 0.306 ± 0.14, R 0.122 ± 0.044, Y -0.242 ± 0.19, T 0.078 ± 0.11, G 0.266 ± 0.05, C 0.044 ± 0.097, W 0.268 ± 0.094, I 0.053 ± 0.17, D -0.031 ± 0.1, L 0.164 ± 0.065, S 0.186 ± 0.078, F 0.224 ± 0.11, H -0.476 ± 0.24, A -0.011 ± 0.073
L26: V -0.364 ± 0.079, G -0.667 ± 0.082, F 0.158 ± 0.1, C -0.047 ± 0.19, Q -1.04 ± 0.21, R -0.872 ± 0.11, E -0.819 ± 0.15, T -0.851 ± 0.13, S -0.77 ± 0.14, D -0.573 ± 0.19, M -0.298 ± 0.085, K -0.279 ± 0.16, H -0.946 ± 0.17, P -0.652 ± 0.14, W -0.033 ± 0.067, N -0.694 ± 0.19, A -0.661 ± 0.14, Y -0.306 ± 0.34
Y23: T -0.379 ± 0.14, G -0.42 ± 0.086, S -0.528 ± 0.15, C 0.167 ± 0.078, V 0.39 ± 0.092, K -0.803 ± 0.28, M 0.051 ± 0.14, R -0.726 ± 0.094, H -0.128 ± 0.26, A 0.068 ± 0.076, I -0.034 ± 0.16, F 0.296 ± 0.13, Q -0.393 ± 0.099, W 0.177 ± 0.062, L 0.279 ± 0.069, P -1.06 ± 0.28, E -0.897 ± 0.14
G38: Y -0.8 ± 0.38, L -0.458 ± 0.064, N -0.195 ± 0.16, W -0.144 ± 0.061, F -0.224 ± 0.13, I -0.347 ± 0.18, E -0.173 ± 0.088, S -0.234 ± 0.082, C -0.46 ± 0.16, R -0.145 ± 0.044, M -0.492 ± 0.11, K -0.346 ± 0.1, D -0.678 ± 0.14, A -0.202 ± 0.053, P -0.279 ± 0.1, T -0.061 ± 0.072, H -0.151 ± 0.16, Q -0.076 ± 0.073
D41: N 0.08 ± 0.07, G 0.038 ± 0.056, M 0.231 ± 0.075, E -0.07 ± 0.076, S 0.065 ± 0.061, R -0.184 ± 0.048, L 0.332 ± 0.044, K 0.028 ± 0.073, C 0.101 ± 0.12, T -0.101 ± 0.12, Q -0.064 ± 0.14, F 0.149 ± 0.099, Y 0.057 ± 0.11, A 0.154 ± 0.049, I 0.394 ± 0.1, H -0.025 ± 0.22, V 0.159 ± 0.069, W 0.354 ± 0.059, P -0.167 ± 0.11
